Laboratory results published in publication PMC10901556, “Conservation of Affinity Rather Than Sequence Underlies a Dynamic Evolution of the Motif-Mediated p53/MDM2 Interaction in Ray-Finned Fishes” (Molecular Biology and Evolution, 2024).
Where no end group is shown, it is not given here.

B2: MDM2_(D.rerio) SWIB domain (domain or fragment)
chain: SQISKVDNEKLVRPKVQLKSLLEDAGADKDVFTMKEVMFYLGKYIMSKELYDKQQQHIVHCGEDPLGAVLGVKSFSVKEPRALFALINRNLVT

Assays:
Assay in all cases: fluorescence polarisation; displacement: complex of MDM2 (0.2-2 μM) and FITC-p53TAD_(human)^15–26 (15 nM) displaced by increasing unlabeled p53TAD peptide or p53TAD^full-length; KD calculated from IC50 (Nikolovska-Coleska et al. 2004); 20 mM sodium phosphate pH 7.4, 150 mM NaCl, 1 mM TCEP
Conditions in all cases: both partners purified
[1] = target: T1, MDM2 SWIB domain from Takifugu rubripes (Japanese puffer) (Takifugu rubripes (Japanese puffer))
T1 construct: MDM2 SWIB domain, Takifugu rubripes; pETM33 vector; Construct limits are in supplementary Spreadsheet S5; also called MDM2 T. rubripes; source: E. coli BL21 (DE3), purified (glutathione agarose, PreScission cleavage, Nickel Sepharose flow-through, SEC); not shown: His6, N-terminal, cleaved; GST, N-terminal, cleaved

p53TAD_(H.sapiens)^15–27 = target: T2, p53TAD_(H.sapiens)^15–27 (Homo sapiens (human), N-terminal acetylated)
T2 construct: also called p53TAD_(human)^15–27; Homo sapiens (human) p53TAD^15–27; source: bought: GeneCust (France), peptide

[2] = target: B2

B1: Takifugu rubripes (Japanese puffer) p53TADP1 p53TAD^full-length (domain or fragment)
chain: MTLNEMTSSSMFLCRSSSDLPAHHRGRMEDEGFSLPLSQDTFQDLWENVAAPSIVTIPTTSLENEQWHQELLMNYPELPFNEELFNLPSEMASKDSANLSTPTVPV
Kd [1]: 0.47 ± 0.03 µM

B2
Kd (p53TAD_(H.sapiens)^15–27): 0.79 ± 0.05 µM

B3: Danio rerio (zebrafish) p53TADP2 p53TAD^15–27 (peptide)
peptide: Ac-SQEFAELWEKNL
notes: numbers count on: human p53TAD; also called p53TAD^15–27_(D.rerio); source: bought: GeneCust (France), peptide
Kd [2]: 3.6 ± 0.3 µM
